These results are taken from patent US20240294626A1 (Novartis, published 2024).

The target in assay [1] is T1, Recombinant human IL-18 (human, UniProt Q14116 37-193).
T1 construct: also called huIL-18; hulL-18
Nature of the assay: SET, simultaneous target binding Assay B (both targets in serial dilutions in one mix). The protocol:
(§1) Assay B: The equilibration process (antibody/antigen mix) was performed with both targets in serial dilutions in one mix simultaneously (constant concentration of antibody 10 pM, highest antigen conc. see above). The same mix was then analyzed for its free antibody concentration on IL18 and IL-1β coated plates as described above.

Assay [2] deals with T2, Recombinant human IL-1β (human, UniProt P01584 117-269). Description: cell-based or functional assay.
The target in assay [3] is T3, Recombinant marmoset IL-1β (marmoset, UniProt U3E018 117-268). Nature of the assay: cell-based or functional assay.
The target in assay [4] is T3, Recombinant marmoset IL-1β. Description: SET, simultaneous target binding Assay B (both targets in serial dilutions in one mix). The protocol: as §1
The target in assay [5] is T2, Recombinant human IL-1β. Described as above. The protocol: as §1
Assay [6] addresses T1, Recombinant human IL-18. Nature of the assay: cell-based or functional assay.
Assay [7] has as its target T4, Recombinant marmoset IL-18 (marmoset, UniProt U3CWC9 37-190).
T4 sequence: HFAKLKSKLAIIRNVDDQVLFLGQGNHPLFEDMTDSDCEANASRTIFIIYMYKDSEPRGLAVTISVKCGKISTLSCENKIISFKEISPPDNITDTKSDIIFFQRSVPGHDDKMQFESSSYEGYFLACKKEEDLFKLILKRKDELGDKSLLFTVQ
Description: cell-based or functional assay.

B1: mAb2 (antibody, human IgG1, kappa, V domains shown)
VH: QVQLVESGGGVVQPGRSLRLSCAASGFTFSVYGMNWVRQAPGKGLEWVAIIWYDGDNQYYADSVKGRFTISRDNSKNTLYLQMNGLRAEDTAVYYCARDLRTGPFDYWGQGTLVTVSS
VL: EIVLTQSPDFQSVTPKEKVTITCRASQSIGSSLHWYQQKPDQSPKLLIKYASQSFSGVPSRFSGSGSGTDFTLTINSLEAEDAAAYYCHQSSSLPFTFGPGTKVDIKR
notes: Human anti-IL-1β monoclonal antibody, kappa light chain; also called IL-1β antibody
With B1, in the assay with Recombinant human IL-18 [1], the binding result is “no binding (tested: highest antigen conc. 5 nM)”. For the same molecule, in the assay with Recombinant human IL-1β [2], the “IC50, inhibition of IL-6 production in human PBMC stimulated with recombinant human IL-1β (60 pM)” value was determined as 0.29 nM and the “IC50, inhibition of IL-6 production in human dermal fibroblasts stimulated with recombinant human IL-1β (6 pM)” value turned out to be 31 pM. In assay [3], the “IC50, inhibition of IL-6 production in human dermal fibroblasts stimulated with recombinant marmoset IL-1β (18 pM), Exp. C” value came out at 0.114 nM; the “IC50, inhibition of IL-6 production in marmoset dermal fibroblasts stimulated with recombinant marmoset IL-1β (18 pM), Exp. A” value stood at 95 pM; the “IC50, inhibition of IL-6 production in marmoset dermal fibroblasts stimulated with recombinant marmoset IL-1β (18 pM), Exp. B” value worked out at 0.138 nM.

B2: mAb1 (antibody, human IgG1, lambda, L234A L235A, V domains shown)
VH: EVQLVQSGAEVKKPGSSVKVSCKASGGTFKSYAISWVRQAPGQGLEWMGNIIPMTGQTYYAQKFQGRVTITADESTSTAYMELSSLRSEDTAVYYCARAAYHPLVFDNWGQGTLVTVSS
VL: DIVLTQPPSVSGAPGQRVTISCSGSSSNIGNHYVNWYQQLPGTAPKLLIYRNNHRPSGVPDRFSGSKSGTSASLAITGLQSEDEADYYCQSWDYSGFSTVFGGGTKLTVLG
notes: Human anti-IL-18 monoclonal antibody, lambda light chain; also called IL-18 antibody
With B2, the binding result in assay [4] is reported as “no binding (tested: highest antigen conc. 0.5 nM)”. The binding result in the assay with Recombinant human IL-1β [5] was “no binding (tested: highest antigen conc. 0.5 nM)”. Besides, in the assay with Recombinant human IL-18 [6], the “IC50, inhibition of IFNγ production in KG-1 cells stimulated with recombinant human IL-18 (3 nM) and human IL-12 (1 ng/ml)” value was found to be 0.035 nM; the “IC50, inhibition of IFNγ production in human PBMC stimulated with recombinant human IL-18 (3 nM) and human IL-12 (1 ng/ml)” value is 0.78 nM. Besides, in assay [7], the “IC50, inhibition of IFNγ production in human PBMC stimulated with recombinant marmoset IL-18 (1 nM) and human IL-12 (10 ng/ml)” value came out at 6.6 nM; the “IC50, inhibition of IFNγ production in marmoset whole blood stimulated with recombinant marmoset IL-18 (0.3 nM) and human IL-12 (10 ng/ml)” value came out at 4.7 nM; the “IC50, inhibition of IFNγ production in marmoset whole blood stimulated with recombinant marmoset IL-18 (3 nM) and human IL-12 (10 ng/ml)” value came out at 181 nM.
